Starred links: 1 amine or outer side, 2 acyl side, 3 side chain; linkers in the order of their positions; H or OH if unused. Positions of bridges follow the written chain, without caps; N, C: chain ends. Non-standard residues stand in square brackets, D forms with d. Primed or numbered codes have the meaning given here. PyrS2″ = (S)-3-amino-1-((pent-4-en-1-yloxy)carbonyl)pyrrolidine-3-carboxylic acid (stapling residue), C=CCCCOC(=O)N1CC[C@@](N[*:1])(C(=O)[*:2])C1; B5(32) = 2-amino-2-(pent-4-en-1-yl)hept-6-enoic acid (bis-4-pentenylglycine, two alkene side chains), C=CCCCC(CCCC=C)(N[*:1])C(=O)[*:2]; B5(4) = 2,2-bis(4-pentenyl)glycine = 2-amino-2-(pent-4-en-1-yl)hept-6-enoic acid (stitching residue), C=CCCCC(CCCC=C)(N[*:1])C(=O)[*:2]; PyrS2 = (S)-3-amino-1-((pent-4-en-1-yloxy)carbonyl)pyrrolidine-3-carboxylic acid, C=CCCCOC(=O)N1CC[C@@](N[*:1])(C(=O)[*:2])C1; Phe(3-COOH) = N[C@@H](Cc1cccc(C(=O)O)c1)C(=O)O; Phe(2-CF3) = N[C@@H](Cc1ccccc1C(F)(F)F)C(=O)O; Bta = N[C@@H](Cc1csc2ccccc12)C(=O)O; αAllylPro = C=CC[C@@]1(C(=O)O)CCCN1; tBuAla = CC(C)(C)C[C@H](N)C(=O)O; 3Thi = N[C@@H](Cc1ccsc1)C(=O)O
T1: beta-catenin in DLD1 TCF/LEF luciferase reporter cells (UniProt P35222 1-781)
T1 sequence (looked up): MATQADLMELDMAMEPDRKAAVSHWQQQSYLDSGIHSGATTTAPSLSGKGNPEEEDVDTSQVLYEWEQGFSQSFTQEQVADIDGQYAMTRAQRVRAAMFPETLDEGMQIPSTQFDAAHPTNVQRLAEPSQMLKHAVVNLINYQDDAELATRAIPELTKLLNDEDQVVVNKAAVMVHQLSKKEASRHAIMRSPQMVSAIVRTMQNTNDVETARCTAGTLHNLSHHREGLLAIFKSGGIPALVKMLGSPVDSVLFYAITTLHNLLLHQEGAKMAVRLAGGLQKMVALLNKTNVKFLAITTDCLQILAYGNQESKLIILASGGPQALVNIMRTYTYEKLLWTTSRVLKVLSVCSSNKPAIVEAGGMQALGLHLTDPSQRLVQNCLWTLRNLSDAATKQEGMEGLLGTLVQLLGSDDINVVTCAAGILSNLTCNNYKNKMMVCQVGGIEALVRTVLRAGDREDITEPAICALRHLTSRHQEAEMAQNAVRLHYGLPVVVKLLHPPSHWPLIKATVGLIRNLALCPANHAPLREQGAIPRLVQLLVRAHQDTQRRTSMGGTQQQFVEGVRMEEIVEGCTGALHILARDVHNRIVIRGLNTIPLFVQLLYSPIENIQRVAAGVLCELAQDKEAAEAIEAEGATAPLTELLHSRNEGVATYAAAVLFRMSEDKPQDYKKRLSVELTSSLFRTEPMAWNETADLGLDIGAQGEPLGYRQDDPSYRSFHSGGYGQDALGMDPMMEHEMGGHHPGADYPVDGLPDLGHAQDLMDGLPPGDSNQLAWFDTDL

T2: B-cat-Halo (UniProt P35222 1-781)
T2 sequence (looked up): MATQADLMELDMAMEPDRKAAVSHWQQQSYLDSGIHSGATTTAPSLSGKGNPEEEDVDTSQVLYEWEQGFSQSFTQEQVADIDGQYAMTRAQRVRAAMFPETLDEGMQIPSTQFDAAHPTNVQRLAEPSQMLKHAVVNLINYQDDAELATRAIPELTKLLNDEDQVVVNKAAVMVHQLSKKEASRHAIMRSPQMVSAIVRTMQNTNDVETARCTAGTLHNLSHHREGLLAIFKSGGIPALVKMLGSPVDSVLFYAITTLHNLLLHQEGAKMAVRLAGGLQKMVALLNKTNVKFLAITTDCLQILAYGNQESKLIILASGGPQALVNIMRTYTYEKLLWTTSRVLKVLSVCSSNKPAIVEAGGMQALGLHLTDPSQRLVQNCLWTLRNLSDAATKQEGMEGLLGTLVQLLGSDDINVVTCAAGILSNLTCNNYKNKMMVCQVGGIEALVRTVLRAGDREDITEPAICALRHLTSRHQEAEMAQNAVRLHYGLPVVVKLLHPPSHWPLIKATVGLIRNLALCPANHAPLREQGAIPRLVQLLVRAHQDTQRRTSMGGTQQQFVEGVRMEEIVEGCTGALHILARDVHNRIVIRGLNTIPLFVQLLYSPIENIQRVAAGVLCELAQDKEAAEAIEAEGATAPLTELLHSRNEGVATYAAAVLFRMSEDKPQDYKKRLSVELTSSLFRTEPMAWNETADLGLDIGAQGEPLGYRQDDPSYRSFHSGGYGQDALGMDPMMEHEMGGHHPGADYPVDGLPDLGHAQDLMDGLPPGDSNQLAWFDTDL

T3: beta-catenin in DLD1 TCF/LEF luciferase reporter cells (UniProt P35222 1-781)
T3 sequence (looked up): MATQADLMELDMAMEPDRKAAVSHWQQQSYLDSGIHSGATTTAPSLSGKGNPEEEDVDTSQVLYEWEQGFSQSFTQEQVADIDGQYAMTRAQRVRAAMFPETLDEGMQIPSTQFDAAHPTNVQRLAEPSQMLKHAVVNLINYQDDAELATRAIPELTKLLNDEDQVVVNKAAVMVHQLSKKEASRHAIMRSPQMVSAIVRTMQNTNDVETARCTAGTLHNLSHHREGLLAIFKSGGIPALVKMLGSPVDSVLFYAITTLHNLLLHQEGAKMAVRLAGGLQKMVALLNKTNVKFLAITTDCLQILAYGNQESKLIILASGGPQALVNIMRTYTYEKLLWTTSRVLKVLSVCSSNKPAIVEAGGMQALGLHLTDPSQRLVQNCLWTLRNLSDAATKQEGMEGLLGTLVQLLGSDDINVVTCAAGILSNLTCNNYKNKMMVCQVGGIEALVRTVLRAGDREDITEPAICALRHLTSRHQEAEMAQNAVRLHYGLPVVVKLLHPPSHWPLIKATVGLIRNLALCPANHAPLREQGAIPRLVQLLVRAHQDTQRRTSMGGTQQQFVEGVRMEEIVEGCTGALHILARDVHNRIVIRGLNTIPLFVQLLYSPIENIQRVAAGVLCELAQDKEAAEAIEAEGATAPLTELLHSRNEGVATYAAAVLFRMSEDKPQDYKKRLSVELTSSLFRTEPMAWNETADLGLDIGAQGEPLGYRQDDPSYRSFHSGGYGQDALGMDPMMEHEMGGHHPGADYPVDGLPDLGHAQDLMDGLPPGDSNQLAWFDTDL

T4: B-cat-Halo (UniProt P35222 1-781)
T4 sequence (looked up): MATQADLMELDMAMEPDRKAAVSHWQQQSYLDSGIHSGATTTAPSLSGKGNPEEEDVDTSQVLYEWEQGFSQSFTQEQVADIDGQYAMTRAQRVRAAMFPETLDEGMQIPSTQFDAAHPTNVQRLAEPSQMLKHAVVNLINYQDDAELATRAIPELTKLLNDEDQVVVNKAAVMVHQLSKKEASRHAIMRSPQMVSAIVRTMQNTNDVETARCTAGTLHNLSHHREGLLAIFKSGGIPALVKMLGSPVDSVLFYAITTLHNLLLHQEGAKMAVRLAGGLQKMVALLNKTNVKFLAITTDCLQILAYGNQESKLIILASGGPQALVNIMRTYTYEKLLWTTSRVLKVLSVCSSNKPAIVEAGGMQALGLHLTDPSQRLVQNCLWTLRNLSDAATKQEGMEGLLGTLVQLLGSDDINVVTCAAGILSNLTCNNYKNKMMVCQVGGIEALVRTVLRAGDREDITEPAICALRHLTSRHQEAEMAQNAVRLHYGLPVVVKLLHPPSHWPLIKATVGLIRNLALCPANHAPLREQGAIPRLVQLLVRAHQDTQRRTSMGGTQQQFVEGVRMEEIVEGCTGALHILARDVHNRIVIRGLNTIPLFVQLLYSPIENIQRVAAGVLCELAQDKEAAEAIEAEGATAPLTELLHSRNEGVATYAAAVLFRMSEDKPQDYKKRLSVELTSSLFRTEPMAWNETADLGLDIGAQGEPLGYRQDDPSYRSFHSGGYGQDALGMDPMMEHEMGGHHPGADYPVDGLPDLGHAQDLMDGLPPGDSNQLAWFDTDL


How the values were obtained:
Assay in all cases: cell-based or functional assay
[1] = molecular target: T1, beta-catenin in DLD1 TCF/LEF luciferase …
B-cat-Halo [2] = molecular target: T2, B-cat-Halo
[3] = molecular target: T3, beta-catenin in DLD1 TCF/LEF luciferase …; remark: listed apart in the source
B-cat-Halo [4] = molecular target: T4, B-cat-Halo; remark: listed apart in the source

| Binder | DLD1 4% Abs IC50 [1] | NanoBRET Abs IC50 (B-cat-Halo [2]) | DLD1 4% Abs IC50 [3] | NanoBRET Abs IC50 (B-cat-Halo [4]) |
| --- | --- | --- | --- | --- |
| Ac-[αAllylPro]D[tBuAla][B5(32)]D[Phe(3-COOH)]AAFL[PyrS2][3Thi][Bta]NLLL-NH2 (staple 1-4, 4-11; also: later eluting staple isomer (HPLC peak)) [I-2276] | 3.9 µM | 4 µM | – | – |
| Ac-[αAllylPro]D[tBuAla][B5(4)]DDAAFL[PyrS2″][Phe(2-CF3)][Bta]Q-NH2 (staple 1-4, 4-11) [I-1318] | – | – | 3.9 µM | 4.8 µM |

Source: patent publication US20240116985A1 (published 2024)
